Data set [1] addresses T1, hDcr-CΔRBD fragment of human Dicer (Homo sapiens, UniProt Q9UPY3 SEQ:1235-1844).
T1 chain: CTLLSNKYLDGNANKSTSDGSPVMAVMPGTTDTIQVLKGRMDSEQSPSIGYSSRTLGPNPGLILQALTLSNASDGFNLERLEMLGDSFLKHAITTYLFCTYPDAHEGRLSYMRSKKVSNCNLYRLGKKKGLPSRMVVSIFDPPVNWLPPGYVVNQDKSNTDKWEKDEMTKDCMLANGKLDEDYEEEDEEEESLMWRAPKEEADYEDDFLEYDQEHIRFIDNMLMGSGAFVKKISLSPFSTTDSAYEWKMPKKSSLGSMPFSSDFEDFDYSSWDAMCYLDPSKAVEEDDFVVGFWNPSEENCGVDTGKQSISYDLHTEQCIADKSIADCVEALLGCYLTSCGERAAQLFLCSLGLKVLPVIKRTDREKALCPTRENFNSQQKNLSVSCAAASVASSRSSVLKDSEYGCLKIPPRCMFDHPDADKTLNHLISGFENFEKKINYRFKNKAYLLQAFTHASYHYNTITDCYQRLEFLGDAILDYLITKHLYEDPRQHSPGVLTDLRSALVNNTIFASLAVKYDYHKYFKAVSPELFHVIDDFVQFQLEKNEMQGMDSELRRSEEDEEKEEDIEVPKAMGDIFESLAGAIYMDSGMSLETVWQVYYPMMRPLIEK
Description: filter; out of detectable limit. The note with it: tags: expressed from pHMGWA-His6-MBP vector, E. coli. How it is done: (§1) Filter binding assays of hDcr and different hDcr fragments were performed in the same way as previously described (7). Briefly, serial dilutions of hDcr protein were incubated in a buffer containing 20 mM Tris-HCl (pH 7.5), 25 mM NaCl, 5 mM EDTA, 1 mM dithiothreitol (DTT), 1% glycerol and ˜0.5-1 nM (1500 CPM) of 5′-end ³²P-labeled duplex RNA substrate (one strand was labeled) at room temperature for 60 min in a 30 μl of total volume. Following incubation, a 25 μl aliquot of each reaction was applied to a dot-blot apparatus equipped with three membranes: Tuffryn, Protran and Nytran (from top to bottom). After drying, the bound (on Protran) or free (on Nytran) RNAs were quantified by a Phosphorimager (GE Healthcare). Percent bound RNA, calculated as the ratio of radioactivity detected on the Protran membrane over the total input radioactivity, was plotted as a function of protein concentration. Kd was determined by global fitting to the equation: kobsd=(kₘₐₓ[…]) (Kd+[Dicer])−1, where kobsd is the observed rate constant at a given protein concentration, kₘₐₓ is the maximal rate constant with saturating protein, and Kd is the protein concentration that provides half the maximal rate. Curve fitting was conducted with KaleidaGraph (Synergy Software, Reading, Pa.).
To establish the relationship between cleavage activity and substrate binding, nitrocellulose filter-binding assays were performed with three kinds of RNAs under non-cleavage conditions: substrate dsRNA ([…]), Dicer product-mimic dsRNA (19-bp) and a pre-miRNA (pre-hlet-7a-1).

The target in data set [2] is T2, hDcr-C (RNase IIIa/IIIb-dsRBD) fragment of human Dicer (Homo sapiens, UniProt Q9UPY3 SEQ:1235-1922).
T2 chain: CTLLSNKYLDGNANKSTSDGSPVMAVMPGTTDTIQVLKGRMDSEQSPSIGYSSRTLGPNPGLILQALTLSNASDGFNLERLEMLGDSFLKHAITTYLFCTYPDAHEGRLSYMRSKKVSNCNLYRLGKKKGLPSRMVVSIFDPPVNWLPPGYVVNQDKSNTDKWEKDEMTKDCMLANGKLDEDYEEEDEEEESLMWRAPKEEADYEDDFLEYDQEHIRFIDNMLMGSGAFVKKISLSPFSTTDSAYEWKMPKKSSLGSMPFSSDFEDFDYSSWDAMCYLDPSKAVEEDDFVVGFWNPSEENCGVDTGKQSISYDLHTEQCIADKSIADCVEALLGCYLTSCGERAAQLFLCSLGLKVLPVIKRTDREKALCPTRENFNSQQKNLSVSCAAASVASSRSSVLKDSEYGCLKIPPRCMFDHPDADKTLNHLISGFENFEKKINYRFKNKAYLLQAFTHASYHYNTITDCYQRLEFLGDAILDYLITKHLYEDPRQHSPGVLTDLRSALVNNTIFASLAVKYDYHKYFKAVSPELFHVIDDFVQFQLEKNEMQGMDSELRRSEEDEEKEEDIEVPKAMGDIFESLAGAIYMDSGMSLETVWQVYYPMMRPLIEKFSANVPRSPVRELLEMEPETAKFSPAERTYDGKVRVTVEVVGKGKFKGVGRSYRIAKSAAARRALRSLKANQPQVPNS
Kind of data set: filter; out of detectable limit; almost no binding. As to conditions: tags: expressed from pHMGWA-His6-MBP vector, E. coli; label: 5'-32P; hairpin pre-miRNA, 73 nt. The procedure:
as §1, with “Pa.). […]” for “Pa.).”

The target in data set [3] is T3, hDcr-N, N-terminal fragment of human Dicer (1-1068; ATPase/hel, DUF283 and PAZ domains), co-expressed in Sf9 … (human, UniProt Q9UPY3 1-1068).
T3 construct: Co-expressed with hDcr-C in baculovirus-infected Sf9 cells; It could not be expressed alone
T3 sequence: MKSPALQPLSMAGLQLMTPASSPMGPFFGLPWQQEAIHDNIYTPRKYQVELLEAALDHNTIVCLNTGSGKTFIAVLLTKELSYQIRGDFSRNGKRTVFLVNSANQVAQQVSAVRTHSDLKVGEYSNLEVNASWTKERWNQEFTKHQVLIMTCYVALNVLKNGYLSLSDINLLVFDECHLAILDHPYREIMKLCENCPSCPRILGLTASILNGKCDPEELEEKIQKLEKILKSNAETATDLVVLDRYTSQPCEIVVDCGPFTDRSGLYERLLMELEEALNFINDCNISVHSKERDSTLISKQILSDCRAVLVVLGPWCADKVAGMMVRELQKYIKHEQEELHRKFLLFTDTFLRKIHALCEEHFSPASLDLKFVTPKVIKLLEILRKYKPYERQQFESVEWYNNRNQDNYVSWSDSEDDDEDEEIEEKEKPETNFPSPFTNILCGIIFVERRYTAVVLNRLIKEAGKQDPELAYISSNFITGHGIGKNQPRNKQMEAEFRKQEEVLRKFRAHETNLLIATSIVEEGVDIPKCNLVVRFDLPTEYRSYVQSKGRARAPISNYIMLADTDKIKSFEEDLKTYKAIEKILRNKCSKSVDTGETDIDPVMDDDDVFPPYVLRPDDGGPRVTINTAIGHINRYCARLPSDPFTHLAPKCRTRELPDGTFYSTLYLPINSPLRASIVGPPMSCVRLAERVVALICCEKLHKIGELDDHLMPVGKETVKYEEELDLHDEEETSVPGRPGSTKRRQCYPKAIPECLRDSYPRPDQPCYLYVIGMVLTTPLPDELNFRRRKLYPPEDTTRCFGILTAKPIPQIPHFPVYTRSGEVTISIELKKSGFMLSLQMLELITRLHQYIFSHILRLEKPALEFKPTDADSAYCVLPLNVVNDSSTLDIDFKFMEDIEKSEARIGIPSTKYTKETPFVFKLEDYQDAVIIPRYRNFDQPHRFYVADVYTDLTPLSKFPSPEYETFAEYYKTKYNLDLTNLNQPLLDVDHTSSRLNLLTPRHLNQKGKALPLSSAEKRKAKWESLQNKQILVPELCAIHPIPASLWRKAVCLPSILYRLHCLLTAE
Description: co-expression in Sf9 cells, co-purification.

For data set [4], the target named is T4, DP, tandem DUF283-PAZ domains of human Dicer (605-1068), bacterially expressed.
T4 chain: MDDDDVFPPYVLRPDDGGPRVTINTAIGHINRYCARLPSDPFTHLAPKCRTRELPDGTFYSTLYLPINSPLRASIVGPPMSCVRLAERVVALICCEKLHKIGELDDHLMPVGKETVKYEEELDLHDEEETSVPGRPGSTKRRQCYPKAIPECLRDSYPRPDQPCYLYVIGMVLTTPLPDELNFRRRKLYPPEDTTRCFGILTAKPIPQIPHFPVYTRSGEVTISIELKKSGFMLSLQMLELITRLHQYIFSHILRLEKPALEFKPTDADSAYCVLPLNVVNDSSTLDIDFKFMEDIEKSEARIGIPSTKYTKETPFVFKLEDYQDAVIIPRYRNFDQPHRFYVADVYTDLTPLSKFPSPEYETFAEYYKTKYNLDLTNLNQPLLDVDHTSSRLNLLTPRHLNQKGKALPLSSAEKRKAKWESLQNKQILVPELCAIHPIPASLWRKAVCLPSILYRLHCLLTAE

This is an account of results in US20130196383A1, “Method of Producing Dicer” (published 2013).

B1: pre-hlet-7a-1 (ssRNA)
RNA: UGAGGUAGUAGGUUGUAUAGUUUUAGGGUCACACCCACCACUGGGAGAUAACUAUACAAUCUACUGUCUUACC
On to B1, for which the binding result in data set [1] (label: 5'-32P, hairpin pre-miRNA, 73 nt) is “no binding”; in data set [2], “no binding”.

B2: hDcr-C, C-terminal fragment of human Dicer (1235-1922; two RNase III domains and C-terminal dsRBD), co-expressed in Sf9 cells (enzyme)
chain: CTLLSNKYLDGNANKSTSDGSPVMAVMPGTTDTIQVLKGRMDSEQSPSIGYSSRTLGPNPGLILQALTLSNASDGFNLERLEMLGDSFLKHAITTYLFCTYPDAHEGRLSYMRSKKVSNCNLYRLGKKKGLPSRMVVSIFDPPVNWLPPGYVVNQDKSNTDKWEKDEMTKDCMLANGKLDEDYEEEDEEEESLMWRAPKEEADYEDDFLEYDQEHIRFIDNMLMGSGAFVKKISLSPFSTTDSAYEWKMPKKSSLGSMPFSSDFEDFDYSSWDAMCYLDPSKAVEEDDFVVGFWNPSEENCGVDTGKQSISYDLHTEQCIADKSIADCVEALLGCYLTSCGERAAQLFLCSLGLKVLPVIKRTDREKALCPTRENFNSQQKNLSVSCAAASVASSRSSVLKDSEYGCLKIPPRCMFDHPDADKTLNHLISGFENFEKKINYRFKNKAYLLQAFTHASYHYNTITDCYQRLEFLGDAILDYLITKHLYEDPRQHSPGVLTDLRSALVNNTIFASLAVKYDYHKYFKAVSPELFHVIDDFVQFQLEKNEMQGMDSELRRSEEDEEKEEDIEVPKAMGDIFESLAGAIYMDSGMSLETVWQVYYPMMRPLIEKFSANVPRSPVRELLEMEPETAKFSPAERTYDGKVRVTVEVVGKGKFKGVGRSYRIAKSAAARRALRSLKANQPQVPNS
Turning to B2, in data set [3], the binding result is recorded as “binds”. Besides, in data set [4], the “RNA cleavage assay (37ab dsRNA), size pattern of the products” value is reported as “addition of the DP polypeptide to the hDcr-C cleavage reaction led to RNA products similar to those produced by full-length Dicer”.

B3: 37ab (dsRNA)
RNA 1: UGAGGUAGUAGGUUGUAUAGUUUGAAAGUUCACGAUU
RNA 2: UCGUGAACUUUCAAACUAUACAACCUACUACCUCAUU
As to B3, in data set [1] (label: 5'-32P on one strand (37a), perfectly matched 35-bp duplex), the binding result is recorded as “no binding”.
